Legend:
[1] = target: MtrE, His-tagged (wild type) (N. gonorrhoeae FA19) (UniProt Q51006); test: native MS
[2] = target: MtrE, His-tagged (wild type) (N. gonorrhoeae FA19) (UniProt Q51006); test: ITC
[3] = target: MtrE E434K, His-tagged (N. gonorrhoeae FA19) (UniProt Q51006); test: ITC
MtrD, His-tagged = target: T1, MtrD, His-tagged (N. gonorrhoeae FA19, UniProt Q51073 1-1067); test: ITC
T1 sequence (looked up): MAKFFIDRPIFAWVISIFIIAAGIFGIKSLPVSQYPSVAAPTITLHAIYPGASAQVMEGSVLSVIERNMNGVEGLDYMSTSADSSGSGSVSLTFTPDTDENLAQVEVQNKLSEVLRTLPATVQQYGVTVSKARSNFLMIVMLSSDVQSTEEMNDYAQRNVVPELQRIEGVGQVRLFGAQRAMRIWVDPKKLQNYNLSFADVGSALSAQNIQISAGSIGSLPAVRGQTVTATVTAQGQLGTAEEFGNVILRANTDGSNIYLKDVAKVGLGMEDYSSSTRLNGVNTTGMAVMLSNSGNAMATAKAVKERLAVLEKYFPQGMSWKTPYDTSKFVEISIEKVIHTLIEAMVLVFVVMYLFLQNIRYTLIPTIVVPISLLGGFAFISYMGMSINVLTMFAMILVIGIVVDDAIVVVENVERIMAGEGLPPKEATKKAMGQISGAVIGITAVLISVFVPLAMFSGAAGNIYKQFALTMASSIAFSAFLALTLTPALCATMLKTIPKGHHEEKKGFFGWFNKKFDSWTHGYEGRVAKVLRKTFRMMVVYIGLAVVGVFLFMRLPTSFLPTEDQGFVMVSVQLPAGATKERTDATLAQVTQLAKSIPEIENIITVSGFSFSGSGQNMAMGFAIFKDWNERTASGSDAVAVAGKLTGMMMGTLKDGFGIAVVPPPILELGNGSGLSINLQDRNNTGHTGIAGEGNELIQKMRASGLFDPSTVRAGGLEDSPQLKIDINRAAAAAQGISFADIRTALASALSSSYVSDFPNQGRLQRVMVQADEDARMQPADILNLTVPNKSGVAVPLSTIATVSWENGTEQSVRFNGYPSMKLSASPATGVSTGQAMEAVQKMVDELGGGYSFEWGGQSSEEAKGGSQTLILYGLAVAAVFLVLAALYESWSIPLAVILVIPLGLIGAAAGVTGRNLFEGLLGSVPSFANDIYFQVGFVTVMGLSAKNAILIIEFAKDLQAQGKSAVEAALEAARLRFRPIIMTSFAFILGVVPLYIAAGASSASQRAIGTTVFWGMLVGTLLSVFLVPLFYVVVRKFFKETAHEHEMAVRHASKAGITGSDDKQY

**Q.** How did the stoichiometry N [1] turn out when “MtrE, His-tagged (wild type) (from UniProt Q51006 1-467) (natural protein)” was run?
**A.** 3

B1: MtrC α-helical coiled-coil hairpin domain (residues 103–183), His-tagged (domain or fragment)
chain: IDSSTYEAGLESARAQLATAQATLAKADADLARYKPLVSADAISKQEYDAAVTAKRSAEASVKAAQAAIKSAGINLNRSRI
**Q.** B1 was tested. Which Ka1 (site 1 of a two-site fit) [2] did it give?
**A.** 460000 M⁻¹

**Q.** And the Ka2 (site 2 of a two-site fit) [2]?
**A.** 3200 M⁻¹

**Q.** What about the Kd of the first (high-affinity) site of a two-site fit [2] of the same molecule?
**A.** 2200 nM

**Q.** And the dH1 (site 1 of a two-site fit) [2]?
**A.** -12 kcal/mol

**Q.** What about the dH2 (site 2 of a two-site fit) [2] of the same molecule?
**A.** -62 kcal/mol

**Q.** What about the dH of the first site of a two-site fit [2] of the same molecule?
**A.** -11 kcal/mol

**Q.** And the Ka [3]?
**A.** 8.2e+06 M⁻¹

**Q.** What about the Kd [3] of the same molecule?
**A.** 130 nM

**Q.** What about the dH [3] of the same molecule?
**A.** -4.12 kcal/mol

B2: NT-MtrC, N-terminal-truncated (Δ1–34) MtrC, His-tagged (domain or fragment, N. gonorrhoeae FA19, UniProt P43505 35-412, looked up)
chain: GQPAGREAPAPVVGVVTVHPQTVALTVELPGRLESLRTADVRAQVGGIIQKRLFQEGSYVRAGQPLYQIDSSTYEAGLESARAQLATAQATLAKADADLARYKPLVSADAISKQEYDAAVTAKRSAEASVKAAQAAIKSAGINLNRSRITAPISGFIGQSKVSEGTLLNAGDTTVLATIRQTNPMYVNVTQSASEVMKLRRQIAEGKLLAADGAIAVGIKFDDGTVYPEKGRLLFADPTVDESTGQITLRAAVSNDQNILMPGLYVRVLMDQVAADNAFIVPQQAVTRGAKDTVMIVNAQGGMEPREVTVAQQQGTNWIVTSGLKDGDKVVVEGISIAGMTGAKKVTPKEWAPSENQAAAPQAGVQTASEAKPASEAK
**Q.** What does the source list for B2?
**A.** Ka (MtrD, His-tagged): 1.2e+06 M⁻¹; Kd (MtrD, His-tagged): 800 ± 700 nM; dH (MtrD, His-tagged): 1.41 ± 0.318 kcal/mol; Kd [2]: 9800 nM; dH [2]: -6.84 kcal/mol

Source: article PMC3037662 (The Journal of Biological Chemistry, 2010)
